Measured values as given in US20100166808A1, “Method of Facilitating Intracellular Uptake or Transcellular Transport of Cargo Using Nanocarriers Containing Optimal Surface Densities of Integrin-Specific Ligands” (priority 2008, published 2010).

Assays:
Test in all cases: Selectivity for human integrin receptors: phage binding to plate-coated purified integrin
Conditions in all cases: FIG. 1; purified integrin coated at 1 μg/mL; phage-displayed ligand, detection at 450 nm
[1] = target: T1, human α5β1 integrin receptor (Homo sapiens, UniProt P05556+P08648)
T1 construct: purchased Chemicon, Temecula, Calif
Protocol: (§1) Nunc MaxiSorp™ 96-well plates are coated with 200 μL of purified human α3β1, α5β1, and αvβ5 integrins (Chemicon, Temecula, Calif.) at 1 μg/mL in Tween 20™/PBS buffer, pH 7.5 (4° C.). After blocking for two hours with 5% (w/v) BSA (bovine serum albumin) in PBS, pH 7.5, phage samples are incubated with integrins in PBS, pH 7.5, supplemented with 2.5% (w/v) non-fat dry milk. After one hour of incubation, unbound phages are removed and the wells are washed five times with Ca^2+- and Mg^2+-containing PBS, pH 7.5.
(§2) Bound phages are quantified spectrophotometrically at λ=450 nm using monoclonal mouse T7 tail fiber antibody (1:5,000) followed by goat anti-mouse IgG horseradish peroxidase:conjugate (1:5,000) and TMB (3,3′,5,5′-tetramethyl-benzidine) as substrate.

[2] = target: T2, α3β1 integrin receptor (Homo sapiens, UniProt P05556+P26006)
T2 construct: purchased Chemicon, Temecula, Calif
Protocol: as §1, §2

[3] = test system: αvβ3 integrin receptor

T2 sequence (P26006 33-872 limits assumed): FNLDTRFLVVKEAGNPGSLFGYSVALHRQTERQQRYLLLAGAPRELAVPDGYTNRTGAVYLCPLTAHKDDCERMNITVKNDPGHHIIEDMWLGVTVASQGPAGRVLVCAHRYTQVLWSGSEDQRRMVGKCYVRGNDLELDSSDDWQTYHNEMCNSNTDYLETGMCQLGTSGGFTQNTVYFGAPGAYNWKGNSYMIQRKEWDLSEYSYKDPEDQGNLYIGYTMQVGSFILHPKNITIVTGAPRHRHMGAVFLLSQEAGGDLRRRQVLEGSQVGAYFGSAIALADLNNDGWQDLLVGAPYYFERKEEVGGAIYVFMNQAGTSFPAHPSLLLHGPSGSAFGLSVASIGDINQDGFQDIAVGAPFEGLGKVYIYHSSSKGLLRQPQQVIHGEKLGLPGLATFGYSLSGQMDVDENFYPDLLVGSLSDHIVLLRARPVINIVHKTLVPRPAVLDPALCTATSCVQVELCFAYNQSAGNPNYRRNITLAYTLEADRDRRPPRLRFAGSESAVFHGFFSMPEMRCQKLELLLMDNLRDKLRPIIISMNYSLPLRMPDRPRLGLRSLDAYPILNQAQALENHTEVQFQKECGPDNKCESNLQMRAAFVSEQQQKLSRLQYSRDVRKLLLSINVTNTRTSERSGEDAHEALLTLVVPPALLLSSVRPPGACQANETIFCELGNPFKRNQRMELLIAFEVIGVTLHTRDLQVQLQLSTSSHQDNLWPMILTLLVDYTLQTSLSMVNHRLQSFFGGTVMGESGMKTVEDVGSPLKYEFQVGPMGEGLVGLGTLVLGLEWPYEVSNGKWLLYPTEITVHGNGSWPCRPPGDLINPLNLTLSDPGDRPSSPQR
T2 sequence (P26006 873-1051 partner limits assumed): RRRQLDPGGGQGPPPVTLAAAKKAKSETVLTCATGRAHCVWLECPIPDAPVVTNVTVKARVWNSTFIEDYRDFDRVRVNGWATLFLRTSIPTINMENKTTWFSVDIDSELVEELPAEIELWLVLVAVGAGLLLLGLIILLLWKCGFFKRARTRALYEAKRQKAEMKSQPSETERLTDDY
T2 sequence (P05556 21-798): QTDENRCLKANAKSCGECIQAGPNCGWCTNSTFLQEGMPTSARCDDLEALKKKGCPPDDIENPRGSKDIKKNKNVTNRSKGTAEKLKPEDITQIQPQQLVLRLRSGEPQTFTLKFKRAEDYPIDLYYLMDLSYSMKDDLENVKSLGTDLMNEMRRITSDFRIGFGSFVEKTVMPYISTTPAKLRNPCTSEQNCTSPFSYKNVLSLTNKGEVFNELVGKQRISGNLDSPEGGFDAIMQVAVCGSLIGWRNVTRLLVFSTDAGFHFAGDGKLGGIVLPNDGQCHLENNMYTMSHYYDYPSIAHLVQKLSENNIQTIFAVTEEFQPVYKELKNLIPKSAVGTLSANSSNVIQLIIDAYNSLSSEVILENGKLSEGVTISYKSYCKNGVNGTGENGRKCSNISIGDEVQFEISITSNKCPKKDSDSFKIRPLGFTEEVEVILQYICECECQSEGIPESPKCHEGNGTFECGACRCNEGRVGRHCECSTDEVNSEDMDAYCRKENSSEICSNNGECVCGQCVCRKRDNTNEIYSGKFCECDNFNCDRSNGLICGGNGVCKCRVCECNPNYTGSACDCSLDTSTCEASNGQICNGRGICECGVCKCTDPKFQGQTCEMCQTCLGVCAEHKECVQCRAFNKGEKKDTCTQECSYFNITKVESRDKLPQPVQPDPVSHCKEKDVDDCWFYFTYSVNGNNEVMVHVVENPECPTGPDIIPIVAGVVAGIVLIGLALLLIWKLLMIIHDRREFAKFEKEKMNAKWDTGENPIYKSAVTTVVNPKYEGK
T1 sequence (P08648 42-894 limits assumed): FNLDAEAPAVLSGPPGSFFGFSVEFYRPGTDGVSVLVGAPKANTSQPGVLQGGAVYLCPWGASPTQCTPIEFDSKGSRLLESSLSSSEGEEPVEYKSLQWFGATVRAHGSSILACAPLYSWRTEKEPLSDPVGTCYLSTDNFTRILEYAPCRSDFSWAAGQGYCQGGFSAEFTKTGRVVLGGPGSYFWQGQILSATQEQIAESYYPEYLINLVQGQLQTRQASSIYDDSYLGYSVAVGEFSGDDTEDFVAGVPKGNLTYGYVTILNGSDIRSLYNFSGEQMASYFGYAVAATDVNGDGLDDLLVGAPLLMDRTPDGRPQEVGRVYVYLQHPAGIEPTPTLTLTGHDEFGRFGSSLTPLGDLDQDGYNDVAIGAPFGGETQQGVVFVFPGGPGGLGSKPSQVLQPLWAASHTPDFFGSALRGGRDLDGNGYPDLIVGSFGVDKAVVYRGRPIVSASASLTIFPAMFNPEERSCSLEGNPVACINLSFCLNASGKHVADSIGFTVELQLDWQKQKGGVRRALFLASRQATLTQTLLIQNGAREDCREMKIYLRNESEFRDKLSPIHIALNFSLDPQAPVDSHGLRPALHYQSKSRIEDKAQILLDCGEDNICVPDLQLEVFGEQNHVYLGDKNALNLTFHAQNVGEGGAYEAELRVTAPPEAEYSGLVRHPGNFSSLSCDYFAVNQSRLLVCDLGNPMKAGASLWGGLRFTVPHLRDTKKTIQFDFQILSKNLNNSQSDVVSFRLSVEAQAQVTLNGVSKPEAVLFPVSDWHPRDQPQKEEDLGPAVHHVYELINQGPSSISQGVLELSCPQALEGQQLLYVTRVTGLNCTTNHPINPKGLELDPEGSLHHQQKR
T1 sequence (P08648 895-1049 partner limits assumed): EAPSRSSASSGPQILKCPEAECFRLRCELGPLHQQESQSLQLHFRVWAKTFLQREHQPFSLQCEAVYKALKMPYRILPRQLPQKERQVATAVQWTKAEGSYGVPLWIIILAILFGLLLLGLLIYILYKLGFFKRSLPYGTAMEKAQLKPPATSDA
T1 sequence (P05556 21-798): as the sequence (P05556 21-798) above

## RYRGDLGRR [α5β1 integrin-specific ligand peptide]
[1]
  binding to surface-immobilized human α5β1 integrin receptor: binds most effectively
[2]
  affinity for α3β1 integrin receptor: displays affinity
[3]
  affinity for αvβ3 integrin receptor: displays affinity
